The text below walks through data of US20240376186A1 (published 2024).

First the molecules themselves.
B1: EWEµH (other)
chain: EWEQVQLVETGGGLVQAGGSLRLSCAASGSIFSINAMGWFRQAPGKEREFVATINRSGGRTYYADSVKGRFTISRDNGKNMVYLQMHSLKPEDTAIYYCAAGTGWSPQTDNEYNYWGQGTQVTVSSGGGGSGGGGSGGGGSGGGGSRPCGHPGDTPFGTFTLTGGNVFEYGVKAVYTCNEGYQLLGEINYRECDTDGWTNDIPICEVVKCLPVTAPENGKIVSSAMEPDREYHFGQAVRFVCNSGYKIEGDEEMHCSDDGFWSKEKPKCVEISCKSPDVINGSPISQKIIYKENERFQYKCNMGYEYSERGDAVCTESGWRPLPSCEEAGGGGGGGGGGGGGKCGPPPPIDNGDITSFPLSVYAPASSVEYQCQNLYQLEGNKRITCRNGQWSEPPKCLHPCVISREIMENYNIALRWTAKQKLYSRTGESVEFVCKRGYRLSSRSHTLRTTCWDGKLEYPTCAKRENLYFQG
B2: EWE-hC3Nb1 (VHH)
VHH: QVQLVETGGGLVQAGGSLRLSCAASGSIFSINAMGWFRQAPGKEREFVATINRSGGRTYYADSVKGRFTISRDNGKNMVYLQMHSLKPEDTAIYYCAAGTGWSPQTDNEYNYWGQGTQVTVSS
B3: EWEnH (other)
chain: EWEQVQLVETGGGLVQAGGSLRLSCAASGSIFSINAMGWFRQAPGKEREFVATINRSGGRTYYADSVKGRFTISRDNGKNMVYLQMHSLKPEDTAIYYCAAGTGWSPQTDNEYNYWGQGTQVTVSSGGGGSGGGGSGGGGSGGGGSRPCGHPGDTPFGTFTLTGGNVFEYGVKAVYTCNEGYQLLGEINYRECDTDGWTNDIPICEVVKCLPVTAPENGKIVSSAMEPDREYHFGQAVRFVCNSGYKIEGDEEMHCSDDGFWSKEKPKCVEISCKSPDVINGSPISQKIIYKENERFQYKCNMGYEYSERGDAVCTESGWRPLPSCEEA

Sequence of C3b (P01024 23-667, chain 1 of 2): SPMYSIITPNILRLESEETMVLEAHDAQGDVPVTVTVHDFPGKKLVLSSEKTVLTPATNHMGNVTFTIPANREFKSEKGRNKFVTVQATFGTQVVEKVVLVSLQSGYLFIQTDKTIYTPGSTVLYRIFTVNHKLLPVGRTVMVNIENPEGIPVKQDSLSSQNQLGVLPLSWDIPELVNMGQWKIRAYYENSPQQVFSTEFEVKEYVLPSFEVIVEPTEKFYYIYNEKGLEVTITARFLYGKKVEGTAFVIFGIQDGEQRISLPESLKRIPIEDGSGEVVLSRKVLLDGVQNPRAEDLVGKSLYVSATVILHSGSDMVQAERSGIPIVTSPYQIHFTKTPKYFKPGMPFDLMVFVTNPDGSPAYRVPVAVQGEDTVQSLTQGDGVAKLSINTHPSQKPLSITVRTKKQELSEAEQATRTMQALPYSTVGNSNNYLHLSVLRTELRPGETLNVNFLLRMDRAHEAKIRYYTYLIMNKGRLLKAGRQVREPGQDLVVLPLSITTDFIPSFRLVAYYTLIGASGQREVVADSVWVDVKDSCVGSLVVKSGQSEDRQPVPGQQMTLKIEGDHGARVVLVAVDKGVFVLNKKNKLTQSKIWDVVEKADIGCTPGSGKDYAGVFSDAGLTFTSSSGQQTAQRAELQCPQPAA
Sequence of C3b (P01024 749-1663, chain 2 of 2): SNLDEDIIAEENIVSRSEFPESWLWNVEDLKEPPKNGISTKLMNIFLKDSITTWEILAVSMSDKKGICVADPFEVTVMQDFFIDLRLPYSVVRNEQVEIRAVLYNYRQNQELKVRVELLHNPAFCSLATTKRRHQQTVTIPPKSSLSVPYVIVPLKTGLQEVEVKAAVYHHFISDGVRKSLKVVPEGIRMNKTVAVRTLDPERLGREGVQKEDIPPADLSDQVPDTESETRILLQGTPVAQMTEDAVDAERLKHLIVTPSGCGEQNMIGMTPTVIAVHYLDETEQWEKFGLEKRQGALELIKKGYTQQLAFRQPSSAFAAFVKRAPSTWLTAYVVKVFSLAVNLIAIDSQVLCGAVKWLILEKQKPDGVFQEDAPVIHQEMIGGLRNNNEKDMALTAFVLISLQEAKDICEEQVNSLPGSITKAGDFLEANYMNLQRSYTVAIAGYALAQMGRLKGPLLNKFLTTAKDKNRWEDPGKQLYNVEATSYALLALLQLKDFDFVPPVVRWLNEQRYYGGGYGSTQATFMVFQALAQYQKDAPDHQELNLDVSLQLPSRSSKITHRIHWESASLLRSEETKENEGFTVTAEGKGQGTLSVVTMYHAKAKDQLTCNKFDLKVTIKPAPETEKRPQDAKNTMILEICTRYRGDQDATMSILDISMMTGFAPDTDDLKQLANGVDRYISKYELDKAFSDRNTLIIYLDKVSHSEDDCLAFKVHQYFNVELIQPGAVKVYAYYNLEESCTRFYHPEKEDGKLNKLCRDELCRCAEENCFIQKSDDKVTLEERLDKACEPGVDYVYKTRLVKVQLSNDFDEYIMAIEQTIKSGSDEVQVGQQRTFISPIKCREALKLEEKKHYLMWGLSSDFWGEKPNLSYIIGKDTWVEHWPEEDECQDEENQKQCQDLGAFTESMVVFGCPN

The experiment concerns the target C3b (UniProt P01024 23-667; P01024 749-1663). Put plainly: BLI. (In general: Biolayer interferometry detects binding as a change in optical thickness at a sensor tip.)
With B1, the affinity, expressed as Kd, was 0.4 nM.

As for B2, the Kd was determined as 3 nM.

Molecule B3 yielded a Kd of 7.1 nM.

The term Kd denotes the equilibrium constant for the complex coming apart. Low readings indicate a tighter complex, high ones a looser complex.
